This is an account of results in paper PMC2714593, “Insights into the role of Val45 and Gln182 of Escherichia coli MutY in DNA substrate binding and specificity”.

For orientation: Kd means the concentration at which binding is half-saturated.

The target of the data set is T1, MutY (EcMutY) wild type (Escherichia coli, UniProt P17802 1-350).
T1 sequence: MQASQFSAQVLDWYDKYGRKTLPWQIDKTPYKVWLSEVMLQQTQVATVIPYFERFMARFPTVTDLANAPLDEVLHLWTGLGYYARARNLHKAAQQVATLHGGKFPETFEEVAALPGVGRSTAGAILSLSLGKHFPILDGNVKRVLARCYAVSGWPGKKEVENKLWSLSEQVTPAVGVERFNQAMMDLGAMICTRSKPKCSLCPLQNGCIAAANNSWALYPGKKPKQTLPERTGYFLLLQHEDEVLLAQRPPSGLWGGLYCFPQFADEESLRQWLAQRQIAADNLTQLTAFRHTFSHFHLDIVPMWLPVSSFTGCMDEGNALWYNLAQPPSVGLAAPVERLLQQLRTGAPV
The experiment in a line: EMSA; 20 mM Tris-HCl pH 7.6, 80 mM NaCl, 1 mM DTT, 1 mM EDTA, 2.9% glycerol, 20 ng poly dI/dC per 20 ul, 0.09 nM labeled DNA, 30 min at 30 C; 4% PAGE in TBE. To be noted: protein: recombinant; label: 5'-32P on X strand; blunt; T/G mismatch at strand 1 position 22. Background: Mobility shift assays separate free from complexed probe on a gel.

B1: T/G 44-mer (dsDNA)
DNA 1: AATTGGGCTCCTCGAGGAATTTGCCTTCTGCAGGCATGCCCCGG
DNA 2: CCGGGGCATGCCTGCAGAAGGCGAATTCCTCGAGGAGCCCAATT
Consider B1, for which the Kd stood at 14 ± 1 nM.
